From patent publication US20250382363A1 (NUMAB THERAPEUTICS, published 2025)
Numbering of substitutions follows the chain as printed. In names and notes the source's numbering stands. Blank lines part the entries; values can stand above or below the binder they belong to.

How the values were obtained:
[1] = target: pre-existing anti-drug antibodies (ADA) present in human sera; experiment: pre-existing ADA ELISA, scFv coated, human sera unspiked vs spiked
[2] = target: T1, human a-Mesothelin (Acro Biosystems; MSN_H5223) (human, UniProt Q13421 296-580, limits assumed); experiment: SPR, mesothelin immobilised, scFv analyte, 1:1 fit
T1 construct: Bought protein immobilised on the SPR chip; Printed as 'a-Mesothelin' but used as the antigen for the anti-MSLN scFvs; also called Human MSLN; MSLN
Description: The mutation variants were then injected at concentrations of 10 nM, 2 nM and 0.4 nM over the ligand-immobilized and reference spots. The wild type variants were used as a control, while an empty spot was used as reference.
After each cycle with analyte, the surface was regenerated with a 3M MgCl₂ solution, thereby allowing the next analyte cycle to have only free ligand available. Binding affinity KD was globally calculated by the Bruker SPR software based on the binding association (kₒₙ) and dissociation (Koff) rate, by fitting a 1:1 Langmuir model to the curves obtained by the cycles with the three different concentrations of the analyte.

T1 sequence (Q13421 other isoform, or with tags, fused parts or gaps limits assumed): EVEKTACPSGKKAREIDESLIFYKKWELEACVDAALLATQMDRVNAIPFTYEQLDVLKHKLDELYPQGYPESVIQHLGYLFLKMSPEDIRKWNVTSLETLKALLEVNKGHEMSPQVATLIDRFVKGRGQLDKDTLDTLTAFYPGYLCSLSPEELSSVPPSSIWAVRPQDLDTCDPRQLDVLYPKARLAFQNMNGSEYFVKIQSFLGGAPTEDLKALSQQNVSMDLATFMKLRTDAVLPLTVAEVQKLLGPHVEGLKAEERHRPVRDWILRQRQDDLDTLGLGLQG

B2: PRO2918 (scFv 54-21-H03-sc01_(L12R, V103T, L144Q)) (scFv)
scFv: DIQMTQSPSSLSASVGDRVTITCQASESIYSSLAWYQQKPGKAPKLLIYLASTLASGVPSRFSGSGSGTDFTLTISSLQPEDFATYYCQSTDYTTSTHRNSFGTGTKVTVLGGGGGSGGGGSGGGGSGGGGSEVQLVESGGGRVQPGGSLRLSCAASGFSFSTTYYMCWVRQAPGKGLEWIGCTNTASSVRTYYATWAKGRFTISRDNSKNTVYLQMNSLRAEDTATYYCARDMGFADYALNLWGQGTQVTVSS
notes: VH substitutions, AHo numbering; also called PRO1922-L12R-V103T-L144Q
Mean No of serum samples >30% inhibition (30% CCP) with SCP (serum samples) [1]: 3
No of serum samples >30% inhibition (30% CCP) without SCP (serum samples) [1]: 5
Kd [2]: 2.4 nM
n-fold to wt [2]: 1.3 fold

B3: PRO2942 (scFv 54-21-H03-sc01_(T146R)) (scFv)
scFv: B2 scFv with R143L, T227V, Q249L, T251R
notes: PRO1922 variant; VH substitution, AHo numbering; also called PRO1922 T146R
Mean No of serum samples >30% inhibition (30% CCP) with SCP (serum samples) [1]: 1
No of serum samples >30% inhibition (30% CCP) without SCP (serum samples) [1]: 6
Kd [2]: 1.3 nM
n-fold to wt [2]: 0.7 fold

B5: PRO2991 (scFv 54-21-H03-sc01_(T101A)) (scFv)
scFv: B2 scFv with R143L, T225A, T227V, Q249L
notes: PRO1922 variant; VH substitution, AHo numbering; also called PRO1922 T101A
Mean No of serum samples >30% inhibition (30% CCP) with SCP (serum samples) [1]: 0
No of serum samples >30% inhibition (30% CCP) without SCP (serum samples) [1]: 0
Kd [2]: 2.9 nM
n-fold to wt [2]: 1.6 fold

B6: PRO2944 (scFv 54-21-H03-sc01_(T146Q)) (scFv)
scFv: B2 scFv with R143L, T227V, Q249L, T251Q
notes: PRO1922 variant; VH substitution, AHo numbering; also called PRO1922 T146Q
Mean No of serum samples >30% inhibition (30% CCP) with SCP (serum samples) [1]: 3
No of serum samples >30% inhibition (30% CCP) without SCP (serum samples) [1]: 3
Kd [2]: 1.8 nM
n-fold to wt [2]: 1 fold

B7: PRO2930 (scFv 54-21-H03-sc01_(L144K, T146E, S148K)) (scFv)
scFv: B2 scFv with R143L, T227V, Q249K, T251E, S253K
notes: PRO1922 variant; VH substitutions, AHo numbering; also called PRO1922 L144K-T146E-S148K
Mean No of serum samples >30% inhibition (30% CCP) with SCP (serum samples) [1]: 0
No of serum samples >30% inhibition (30% CCP) without SCP (serum samples) [1]: 0
Kd [2]: 1.3 nM
n-fold to wt [2]: 0.7 fold

B10: PRO2937 (scFv 54-21-H03-sc01_(T101S, L144A, T146Q)) (scFv)
scFv: B2 scFv with R143L, T225S, T227V, Q249A, T251Q
notes: PRO1922 variant; VH substitutions, AHo numbering; also called PRO1922 T101S-L144A-T146Q
Mean No of serum samples >30% inhibition (30% CCP) with SCP (serum samples) [1]: 0
No of serum samples >30% inhibition (30% CCP) without SCP (serum samples) [1]: 5
Kd [2]: 1.9 nM
n-fold to wt [2]: 1.1 fold

B12: PRO2938 (scFv 54-21-H03-sc01_(L12A, T101S, L144A, T146Q)) (scFv)
scFv: B2 scFv with R143A, T225S, T227V, Q249A, T251Q
notes: PRO1922 variant; VH substitutions, AHo numbering; also called PRO1922 L12A-T101S-L144A-T146Q
Mean No of serum samples >30% inhibition (30% CCP) with SCP (serum samples) [1]: 0
No of serum samples >30% inhibition (30% CCP) without SCP (serum samples) [1]: 0
Kd [2]: 1.6 nM
n-fold to wt [2]: 0.9 fold

B13: PRO2931 (scFv 54-21-H03-sc01_(L144K, S148L)) (scFv)
scFv: B2 scFv with R143L, T227V, Q249K, S253L
notes: PRO1922 variant; VH substitutions, AHo numbering; also called PRO1922 L144K-S148L
Mean No of serum samples >30% inhibition (30% CCP) with SCP (serum samples) [1]: 1
No of serum samples >30% inhibition (30% CCP) without SCP (serum samples) [1]: 6
Kd [2]: 1.4 nM
n-fold to wt [2]: 0.8 fold

B14: PRO2946 (scFv 54-21-H03-sc01_(T101S)) (scFv)
scFv: B2 scFv with R143L, T225S, T227V, Q249L
notes: PRO1922 variant; VH substitution, AHo numbering; also called PRO1922 T101S
Mean No of serum samples >30% inhibition (30% CCP) with SCP (serum samples) [1]: 6
No of serum samples >30% inhibition (30% CCP) without SCP (serum samples) [1]: 9
Kd [2]: 3.2 nM
n-fold to wt [2]: 1.8 fold

B15: PRO2932 (scFv 54-21-H03-sc01_(L144A, S148N)) (scFv)
scFv: B2 scFv with R143L, T227V, Q249A, S253N
notes: PRO1922 variant; VH substitutions, AHo numbering; also called PRO1922 L144A-S148N
Mean No of serum samples >30% inhibition (30% CCP) with SCP (serum samples) [1]: 1
No of serum samples >30% inhibition (30% CCP) without SCP (serum samples) [1]: 5
Kd [2]: 2.1 nM
n-fold to wt [2]: 1.2 fold

Results, then the binder that gave them:

Mean No of serum samples >30% inhibition (30% CCP) with SCP (serum samples) [1]: 0
No of serum samples >30% inhibition (30% CCP) without SCP (serum samples) [1]: 0
Kd [2]: 3 nM
n-fold to wt [2]: 1.7 fold
B1: PRO2945 (scFv 54-21-H03-sc01_(T101R)) (scFv)
scFv: B2 scFv with R143L, T225R, T227V, Q249L
notes: PRO1922 variant; VH substitution, AHo numbering; also called PRO1922 T101R

Mean No of serum samples >30% inhibition (30% CCP) with SCP (serum samples) [1]: 4
No of serum samples >30% inhibition (30% CCP) without SCP (serum samples) [1]: 5
Kd [2]: 1.5 nM
n-fold to wt [2]: 0.8 fold
B4: PRO2990 (scFv 54-21-H03-sc01_(L12S, V103T, L144T)) (scFv)
scFv: B2 scFv with R143S, Q249T
notes: VH substitutions, AHo numbering; also called PRO1922-L12S-V103T-L144T

Mean No of serum samples >30% inhibition (30% CCP) with SCP (serum samples) [1]: 1
No of serum samples >30% inhibition (30% CCP) without SCP (serum samples) [1]: 4
Kd [2]: 0.66 nM
n-fold to wt [2]: 0.4 fold
B8: PRO2936 (scFv 54-21-H03-sc01_(T101S, T146Q)) (scFv)
scFv: B2 scFv with R143L, T225S, T227V, Q249L, T251Q
notes: PRO1922 variant; VH substitutions, AHo numbering; also called PRO1922 T101S-T146Q

Mean No of serum samples >30% inhibition (30% CCP) with SCP (serum samples) [1]: 3
No of serum samples >30% inhibition (30% CCP) without SCP (serum samples) [1]: 4
Kd [2]: 1.7 nM
n-fold to wt [2]: 0.9 fold
B9: PRO2992 (scFv 54-21-H03-sc01_(T146A)) (scFv)
scFv: B2 scFv with R143L, T227V, Q249L, T251A
notes: PRO1922 variant; VH substitution, AHo numbering; also called PRO1922 T146A

Mean No of serum samples >30% inhibition (30% CCP) with SCP (serum samples) [1]: 2
No of serum samples >30% inhibition (30% CCP) without SCP (serum samples) [1]: 3
Kd [2]: 0.82 nM
n-fold to wt [2]: 0.5 fold
B11: PRO2993 (scFv 54-21-H03-sc01_(P15A)) (scFv)
scFv: B2 scFv with R143L, P146A, T227V, Q249L
notes: PRO1922 variant; VH substitution, AHo numbering; also called PRO1922 P15A
